Test results published in publication PMC10846083.

Columns and labels:
[1] = target: T1, MqsA (Escherichia coli K-12 MG1655) (UniProt Q46864); test: EMSA; conditions: EMSA: 0.25 pmol biotin probe, MqsA titration, 6% polyacrylamide gel in TBE, buffer not given, footprinting: 200 ng FAM probe, 30 min, 25 C
T1 sequence: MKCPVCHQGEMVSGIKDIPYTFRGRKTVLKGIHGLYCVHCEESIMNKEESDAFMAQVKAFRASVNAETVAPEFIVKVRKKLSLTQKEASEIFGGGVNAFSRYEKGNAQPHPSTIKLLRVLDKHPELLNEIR

[2] = target: T1, MqsA (Escherichia coli K-12 MG1655); test: DNase I footprinting; conditions: EMSA: 0.25 pmol biotin probe, MqsA titration, 6% polyacrylamide gel in TBE, buffer not given, footprinting: 200 ng FAM probe, 30 min, 25 C

Sequence | binding [1] | binding [2]
CTGGCGTATGAGGTAATAAAGCGCGTTTGGGAAGGTGAAATGTTGCTGGTAAATGATTCGGAGTCAGCGGGGGAAGGTGTCGGTGCGGATGCCTGACCTGTGGATATAGCGGTTAAAACCTTCACCGGCGTCCGGTTCAAAGTTCCATGCCCGCCAACCATCCGACCTTCGGCATCACGAACTATCAGGCGGACGTGAATGCCCTGGTTTGTGTCAATGTTAATGTCGGTGATACCGGCAGATACCAGTGGCCCTGCTACGCAATC (double strand) [lfgA promoter mutant probe 2 (MP2)] | no binding | 
CTGGCGTATGAGGTAATAAAGCGCGTTTGGGAAGGTGAAATGTTGCTGGTAAATGATTCGGAGTCAGCGGGGGAAGGTGTCGGTGCGGATGCCTGACCTGTGGATATAGCGGTTAAAACCTTCTTTTGCGTCATTATCAAAGTTCCATGCCCGCCAACCATCCGACCTTCGGCATCACGAACTATCAGGCGGACGTGAATGCCCTGGTCGTCTTCAATGTTAATGTCGGTGATACCGGCAGATACCAGTGGCCCTGCTACGCAATC (double strand) [lfgA promoter mutant probe 1 (MP)] | binds | 
GATTGCGTAGCAGGGCCACTGGTATCTGCCGGTATCACCGACATTAACATTGAAGACGACCAGGGCATTCACGTCCGCCTGATAGTTCGTGATGCCGAAGGTCGGATGGTTGGCGGGCATGGAACTTTGAACCGGACGCCGGTGAAGGTTTTAACCGCTATATCCACAGGTCAGGCATCCGCACCGACACCTTCCCCCGCTGACTCCGAATCATTTACCAGCAACATTTCACCTTCCCAAACGCGCTTTATTACCTCATACGCCAG (double strand) [FAM-lfgA (yfjY) promoter footprint probe] |  | binds
GATTGCGTAGCAGGGCCACTGGTATCTGCCGGTATCACCGACATTAACATTGAAGACGACCAGGGCATTCACGTCCGCCTGATAGTTCGTGATGCCGAAGGTCGGATGGTTGGCGGGCATGGAACTTTGAACCGGACGCCGGTGAAGGTTTTAACCGCTATATCCACAGGTCAGGCATCCGCACCGACACCTTCCCCCGCTGACTCCGAATCATTTACCAGCAACATTTCACCTTCCCAAACGCGCTTTATTACCTCATACGCCAG (double strand) [lfgA (yfjY) promoter WT probe] | binds | 
